Assay: soluble on expression in E. coli; label from the status in PepcDB or PDB records

Row | Sequence | soluble on expression in E. coli
1 | MAAAAAAAGGAALAVSTGLETATLQKLALRRKKVLGAEEMELYELAQAAGAAIDPDVFKILVDLLNLNVAPLAVFQMLKSMCAGQRLASDPQDSVPISLSTSTSETRGRNRGGPILGNVTISAERGSRERPIQRMPRQPSATRLPKVGGSGKSNSRSSP | soluble
2 | MDSPQYLFLDFEFTMPETKTNPDGFCPEIIEVGLVAVVDDQIIGQFSSYVKPLRFPQLTERCKSFLNITQEQIDRGMSFYELVSLLRQYDRDRPTTVMTWGSMDMKVLRENCQSARVEFPFTGEHRDLAMEYKRFFGNKNQTALRKAVQEYGNEAVGKAHCALDDAFTAYTIFRLVENDKKYLAKTKPPTIGERIDLSQLRKKFAL | not soluble
3 | MSFLEKLVAKYEPIKEEKPKLVPKPTRKRQPETTEIVVKTRRITRRNAKAPVKEEEIGHQKAQITIVDDEEFMEQPVQEPIEIEEEQQEESHLEIALPEQPNHEPMQSSPSLPRKSFKPDMHPIAKKGGKICIVDLGLTSHTLPTEQTPGFLKRLGENVGGSIDYSYESIDELIRTAPDAWSKASMGAIRGVMLMQELVTERSMHPKSKPMEKNRLLGEEMAKLNPNDFLNHKLLEVSSLDQTVFINVNLVFSALSIQHGSVRSIVNAMSNHWIDYLIPREQQGSFTTSKKTEPLTFFPGDLTNWPAALLAAAIKLDNDQVDVTRLPSVVNMLFKHHIKVRFDHARGLYRTKHDGQNPPKIVLPKRPIIDCTQFYKSSEDIDEEQVPSTSNFQSSSNSLSTSKSAGREHIPDSP | not soluble
4 | MSLKYDYVIIGNSAGGIGCVEAIRELDVDSSILVISAEKYHAYSRALIPYYLDGKIEFEKMYYRPPDFYEKMDVETKLGVRAVGVDVEAKKVLLESGEEVEYGKLLIATGGKPFIPPMEGLGGQSNVFTFLKMDDVLAVEKAIKEAKKAVVLGGGIIGLMASEVLAKKGLDVKVVELADRVLAPVVDETTSRIVERKFEENGVEIILNNTISKVVGEERVEKVILRDGRELEADMLLVAVGVVPNVDIVKNTPIKVNRGIVVNRKMETSVKDVYACGDCAEIYDFVFGANRVLPLWPTAYTGGRIAGFNMVGIEREYNLATSMNAMHFFDYYIINAGLNVPNDSEEFEVIYRLEGDSYRKFALKDGRIAGFIIAGKMERAGIFLKLMEEGIDVSSFKEKLLKDNFGFLDIPEPTRWKLIEDKIKLGVVREIEGHHHHHH | soluble
5 | RELIHFAHGNGFPSLCYKQLLEQLETRFDCCFIDKIGHDPDYPVGENWHNLVAEIIASIKRQAEQPVIAVGHSLGGVLSLLAAIEQPKLFKAVIMLDSPLIGAFKSSMVRLAKALGIIDRVTPAFRTKKRREHWQNYEQLISYLKTRDLFKTFTEECLNDYIKYGLQYKEDGYYLRFDRHVEYQIYRTIPHVIPRYKGKLIVPAALIYGDKSTVVDRMDIRYMKNHFNVKCFKTMGTHLFPMEHPKAVGKQVIEVIDAII | not soluble
6 | MGSDKIHHHHHHMDVRRPIREAVNNRRKPKFLSVSFNQDDSCFSVALENGFRIFNTDPLTSKLSKTFKESATNQSRGTGIGYTRMLYRTNYIALVGGGKRPRHALNKLIIWDDLLQKETITLKFMSSIKDVFLSRIHIVVVLENTIEIFQFQTNPQRICPILDIPPNGSVDYVVCSSKHLQSQASQSQSKILEIIAFPSNKCVGQIQVADLSQIKYNSQNPKESALLPTSIIKAHKNPIKLVRLNRQGTMVATCSVQGTLIRIFSTHNGTLIKEFRRGVDKADIYEMSFSPNGSKLAVLSNKQTLHIFQIFETTNTETNTPDHSRANGSSHPLKNYIPKGLWRPKYLDSVWSICNAHLKNPIFDAHRNDNSGDVTHDNEFYKDRCRIGWCQDSNNREQDDSLVLVWQNSGIWEKFVILEKEQQDSSKTHYSLNESLRNEDTKSAGEPTRWELVRESWREL | not soluble
7 | MASAIWYYTVLVAESVLGIVGLRLYEEPAYTVLDRPSDTIEIRRYAPRVAAEVDLERRGNADGQAFTLLFNYIAGANRGGSGTSERVAMTVPVDVARPAKIAMTAPVETATQDRMTRMRFFLPATFTADTAPKPSDERVQIVTVPEQTIATLRFSGTGRDLREREQQLIAALANTPWQPVGAPYGLFYDAPFTLPFVRRNEAAVEVAKRLEHHHHHH | not soluble
8 | SRFTISAAKPEDCKDIERMIMELAVYENMPDQVKISHKELERDGFGPNPFYHCLVAEVPEEHKSKDGNTTVGYVIFFYTYSTWKGRTVYMEDLYVMPEFRGNGIGKALLGAVAKEAKDQLCSRLQFSVLDWNKPSLDFYMAKGAEDLTAKEGWHFLRFHGMALDNLAQEAP | soluble
9 | MSLINLKHSFGISRSSHDFYDIVYFYIVDGEIIGRGEAAPSKRYNETTEKIISVLNKGILVPENFEDADQLWEYIKPQLEGISALEAAANMAIWDWRGQKENKAVHDILGFNVSKLPATSYTISIGDMSELDEKIELSNPYSIIKVKLGTPNDDKEIISQIRQRTDKLIRVDANEGWSLDNAKEMSYWLADRNVEFIEQPFKAKMLNETRSLREFSPLPLFADENSLVSSDIPNIVDCFDGINIKLMKCGGLDEALKMIEIAKHFDMQIMLEGHHHHHH | not soluble
10 | MALSTLNREVIKKNLQNEEYDVVIIGGGITGAGIALDASQRGMKVALVEMQDFAQGTSSRSTKLVHGGLRYLKQAQIKVVAETGKERAIVYENGPHVTTPEWMLLPMHKGGTFGKFTTNLGLTAYDRLAGVKKYERKKMLSKKQTLNKEPLVKKDGLKGGGYYVEYRTDDARLTIEVMKRAEENGAEILNHTKSTDFIYDSKSKVRGIEVQDLLTGEMYEINAKKVINAAGPWVDEVRKKDYTRNNKQLRLTKGVHVVIDQSKFPLRQAVYFDTEKDGRMIFAIPREGKAYVGTTDTFYDNDKTKPLTTQEDRDYLIDAINYMFPDVNVKDEDIESTWAGVRPLILEDGKDPSEISRKDEIWEGKSGLLTIAGGKLTGYRHMALEIVDLLAKRLKQEYKLTFAECKTKHTPISGGDVGGSANFESFVERKVEEGKAIGLQADVAKRLASKYGSNVDKLYNIAQIAQDKDLKLPLELYVELVYSVQNEMVFKPTDFLIRRSGKLYFNINEVKQYKDAVVEELAKLLNYTQSQQNEFTKEINIAIEEATRGNEQLAVLKLEHHHHHH | soluble
11 | MSLKKQPLAYRMRPSNIDEVIGQQHLVGEGKIIRRMVDAGQLSSMILYGPPGVGKTSIAQAIAGSTDTHYKLLNAVVNNKKDMEIVVEEAKMSGQLILILDEVHRLDKGKQDFLLPHLEKGLLILIGATTANPFHSINPAIRSRCQIFELTPLTTDEIKVALTRALTDKTHGLGEEPVVISDEALAHFAFACGGDVRSALNGLELAVRSTQPNVKGEKEITLSVAEECIQRKSFHHDKDGDAHYDVLSAFQKSIRGSDVNAALHYLARLIEAGDLVSIGRRLLVIAYEDIGLANPQAGPRTLAAIEAAERLGFPEGRIPLANAVVELCLSPKSNSAYVALDAAIADIRKGHVGSVPAHLKDAHYKGAEQLGRGIGYKYPHDYERGWVKQQYLPDSLKSRAYYEPKRTGKFEDALADVYEKLRKSTFSEGHHHHHH | soluble
12 | MATKPQDANTTSREAITSKADSPPRPTALIFDSGVGGLSVYQEIRQLLPDLHYIYAFDNVAFPYGEKSGEFIVERVLEIVTAVQQRHPLAIVVIACNTASTVSLPALRERFAFPVVGVVPAIKPAVRLTRNGVVGLLATRATVHASYTLDLIARFATDCKIELLGSSELVEVAETKLHGGVVPLEVLKKILHPWLSMREPPDTIVLGCTHFPLLTEELAQVLPEGTRMVDSGAAIARRTAWLISSQENVISSQDENIAYCMALDEDTDALLPVLQSYGFPKLQKLPI | not soluble
13 | MGNGLAKCLIDGDTETFWHAKWQGGSDPLPYDIVIDMKQNIQIAQVELLPRGRGSNNPIKVVEFAASEDNVNWTPIGRFGFTNQDAALEYYVKSIKARYIRLTIPDDGGNSTVAAIRELDVKGTIINLEHHHHHH | not soluble
14 | SKHYPEAGIQYSSSTTGDGRPLDIEFSGSCSLEKFYDNPKSNDGNSYRLQSWLYASRLLQYSDALEHLLSTGQGVVLERSIYSDFVFLEAMYNQGFIRKQCVDHYNEIKRLTLPEYLPPHAVIYIDVPVSEIQSRIQKKGDPHEMKVTSAYLQDIEDAYKKTFLPKMSEICEVLVYSSWEAEDSTKVVEDIEYLNYNKGPWLKQDDRTFHNLRMLVQDKREVLNYTTVPVYLPEITIGAHQGSRIYDSFRELPGRKYAPGYNADVGDKWIWLK | soluble
15 | MLNVEPSFAEELRSSGVSLSATYLGSVPVVESINVMVSEMRVQVVSECIQHVAATVGVTAAREINPVVSRPTLHGSMKKPR | not soluble
